Data from patent publication US20180155451A1 (published 2018).

T1: FcγRIIb extracellular domain with C-terminal His tag (human, UniProt P31994 43-217)
T1 construct: extracellular domain; Expressed in FreeStyle293 cells and used as the analyte in Biacore; also called FcgRIIb; 2b; not shown: His tag attached to the C terminus
T1 sequence (looked up): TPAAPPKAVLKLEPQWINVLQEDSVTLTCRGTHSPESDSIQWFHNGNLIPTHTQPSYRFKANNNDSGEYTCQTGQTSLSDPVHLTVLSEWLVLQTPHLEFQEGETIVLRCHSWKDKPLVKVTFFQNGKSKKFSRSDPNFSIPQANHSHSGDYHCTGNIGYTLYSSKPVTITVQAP

T2: FcγRIIa R (human FcγRIIa, allotype R, Arg at position 131), extracellular domain with C-terminal His tag (human, UniProt P12318 34-217)
T2 construct: extracellular domain; expressed in FreeStyle293 cells; analyte in Biacore; also called 2aR; FcgRIIa R
T2 sequence (looked up): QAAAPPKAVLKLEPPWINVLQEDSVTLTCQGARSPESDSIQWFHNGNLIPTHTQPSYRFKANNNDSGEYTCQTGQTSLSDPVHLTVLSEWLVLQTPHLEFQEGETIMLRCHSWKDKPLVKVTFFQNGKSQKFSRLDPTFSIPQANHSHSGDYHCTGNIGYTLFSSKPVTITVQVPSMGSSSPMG

B1: GpH7-A5/GpH7-B3 variant S267_10E/GpL16-k0 (He Ab) (antibody, human IgG1, kappa)
heavy 1: not shown
heavy 2: not shown
light: DIVMTQSPLSLPVTPGEPASISCQASESLVHSNRNTYLHWYLQKPGQSPQLLIYKVSNRFSGVPDRFSGSGSGTDFTLKISRVEAEDVGVYYCSQNTHVPPTFGQGTKVEIERTVAAPSVFIFPPSDEQLKSGTASVVCLLNNFYPREAKVQWKVDNALQSGNSQESVTEQDSKDSTYSLSSTLTLSKADYEKHKVYACEVTHQGLSSPVTKSFNRGEC
notes: Anti-glypican-3 heterodimerized IgG1 antibody; the mutation stands in only one H chain (the GpH7-B3 chain); also called S267E in one H chain
B2: GpH7-A5/GpH7-B3 variant S337_02A/GpL16-k0 (antibody, human IgG1, kappa)
heavy 1: not shown
heavy 2: not shown
light: B1 light
notes: heterodimerized antibody, mutation in one H chain only; also called He Ab
B3: GpH7-A5/GpH7-B3 variant P238_20W/GpL16-k0 (antibody, human IgG1, kappa)
heavy 1: not shown
heavy 2: not shown
light: B1 light
notes: as for B2
B4: GpH7-A5/GpH7-B3 variant S298_06M/GpL16-k0 (antibody, human IgG1, kappa)
heavy 1: not shown
heavy 2: not shown
light: B1 light
notes: as for B2
B5: GpH7-A5/GpH7-B3 variant S324_04F/GpL16-k0 (antibody, human IgG1, kappa)
heavy 1: not shown
heavy 2: not shown
light: B1 light
notes: as for B2
B6: GpH7-A5/GpH7-B3 variant H268_02A/GpL16-k0 (He Ab) (antibody, human IgG1, kappa)
heavy 1: not shown
heavy 2: not shown
light: B1 light
notes: Anti-glypican-3 heterodimerized IgG1 antibody; the mutation stands in only one H chain (the GpH7-B3 chain); also called H268A in one H chain
B7: GpH7-A5/GpH7-B3 variant S267_19Q/GpL16-k0 (antibody, human IgG1, kappa)
heavy 1: not shown
heavy 2: not shown
light: B1 light
notes: as for B2
B8: GpH7-A5/GpH7-B3 variant P331_03V/GpL16-k0 (antibody, human IgG1, kappa)
heavy 1: not shown
heavy 2: not shown
light: B1 light
notes: as for B2
B9: GpH7-A5/GpH7-B3 variant S267_20W/GpL16-k0 (He Ab) (antibody, human IgG1, kappa)
heavy 1: not shown
heavy 2: not shown
light: B1 light
notes: Anti-glypican-3 heterodimerized IgG1 antibody; the mutation stands in only one H chain (the GpH7-B3 chain); also called S267W in one H chain
B10: GpH7-A5/GpH7-B3 variant H268_05P/GpL16-k0 (He Ab) (antibody, human IgG1, kappa)
heavy 1: not shown
heavy 2: not shown
light: B1 light
notes: Anti-glypican-3 heterodimerized IgG1 antibody; the mutation stands in only one H chain (the GpH7-B3 chain); also called H268P in one H chain
B11: GpH7-A5/GpH7-B3 variant S324_06M/GpL16-k0 (antibody, human IgG1, kappa)
heavy 1: not shown
heavy 2: not shown
light: B1 light
notes: as for B2
B12: GpH7-A5/GpH7-B3 variant S298_08L/GpL16-k0 (antibody, human IgG1, kappa)
heavy 1: not shown
heavy 2: not shown
light: B1 light
notes: as for B2
B13: GpH7-A5/GpH7-B3 variant H268_13S/GpL16-k0 (He Ab) (antibody, human IgG1, kappa)
heavy 1: not shown
heavy 2: not shown
light: B1 light
notes: Anti-glypican-3 heterodimerized IgG1 antibody; the mutation stands in only one H chain (the GpH7-B3 chain); also called H268S in one H chain
B14: GpH7-A5/GpH7-B3 variant S267_09D/GpL16-k0 (antibody, human IgG1, kappa)
heavy 1: not shown
heavy 2: not shown
light: B1 light
notes: as for B2
B15: GpH7-A5/GpH7-B3 variant P271_09D/GpL16-k0 (antibody, human IgG1, kappa)
heavy 1: not shown
heavy 2: not shown
light: B1 light
notes: as for B2

Assays:
[1] = biological target: T3, FcγRIIIa extracellular domain with C-terminal His tag (human, UniProt P08637 17-208); assay: SPR (Biacore), antibody captured on antigen peptide chip, FcγR as analyte; bound amount against control heterodimerized antibody
T3 construct: extracellular domain; also called FcgRIIIa; 3a; not shown: His tag attached to the C terminus
T3 sequence (P08637 17-208): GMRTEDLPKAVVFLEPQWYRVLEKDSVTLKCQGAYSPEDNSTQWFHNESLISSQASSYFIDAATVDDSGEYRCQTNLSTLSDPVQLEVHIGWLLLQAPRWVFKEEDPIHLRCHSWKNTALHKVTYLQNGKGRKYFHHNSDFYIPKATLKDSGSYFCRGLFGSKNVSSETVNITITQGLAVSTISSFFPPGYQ
Procedure: (§1) Analysis of interaction between objective antibody and the FcγR was carried out using Biacore T100 (GE Healthcare). HBS-EP+ (GE Healthcare) was used as the running buffer, and the measurement temperature was set to 25° C. Chips produced by immobilizing the antigen peptide by the amine coupling method to a Series S Sencor Chip CM5 (GE Healthcare), or alternatively, chips produced by allowing preliminarily biotinylated antigen peptides to interact with and immobilize onto a Series S Sensor Chip SA (certified) (GE Healthcare) were used. Antibodies of interest were captured onto an antigen peptide-immobilized chip, and allowed to interact to each FcγR diluted with running buffer. To regenerate and repeatedly use the chip, the antibodies captured on the chip were washed off by reacting 10 mM glycine-HCl, pH 1.5.
(§2) The FcγR-binding activity of each antibody was assessed primarily using as an indicator the FcγR-binding activity and dissociation constant for FcγR.

[2] = biological target: T1, FcγRIIb extracellular domain with …; assay: as above
Procedure: as §1, §2

[3] = biological target: T3, FcγRIIIa extracellular domain with …; assay: SPR (Biacore); relative FcγRIIIa binding divided by relative FcγRIIb binding of the same antibody
Procedure: as §1, §2

[4] = biological target: T2, FcγRIIa R (human FcγRIIa, allotype R, …); assay: SPR (Biacore), relative binding vs GpH7-A5/GpH7-B3/GpL16-k0

| Binder | He/Con_3a (IIIa binding) [1] | He/Con_2b (IIb binding) [2] | He_3a/2b (IIIa/IIb) [3] | He/Con_2aR [4] |
| --- | --- | --- | --- | --- |
| B1 | 91.9 relative binding activity, GpH7-A5/GpH7-B3/GpL16-k0 = 100 | 379 relative binding activity, GpH7-A5/GpH7-B3/GpL16-k0 = 100 | 0.24 ratio of He/Con_3a to He/Con_2b |  |
| B2 |  |  |  | 105 relative, control = 100 |
| B3 |  |  |  | 117 relative, control = 100 |
| B4 |  |  |  | 108 relative, control = 100 |
| B5 |  |  |  | 104 relative, control = 100 |
| B6 | 122 relative binding activity, GpH7-A5/GpH7-B3/GpL16-k0 = 100 | 167 relative binding activity, GpH7-A5/GpH7-B3/GpL16-k0 = 100 | 0.73 ratio of He/Con_3a to He/Con_2b |  |
| B7 |  |  |  | 135 relative, control = 100 |
| B8 |  |  |  | 114 relative, control = 100 |
| B9 | 21.5 relative binding activity, GpH7-A5/GpH7-B3/GpL16-k0 = 100 | 57.2 relative binding activity, GpH7-A5/GpH7-B3/GpL16-k0 = 100 | 0.37 ratio of He/Con_3a to He/Con_2b |  |
| B10 | 76.4 relative binding activity, GpH7-A5/GpH7-B3/GpL16-k0 = 100 | 116 relative binding activity, GpH7-A5/GpH7-B3/GpL16-k0 = 100 | 0.66 ratio of He/Con_3a to He/Con_2b |  |
| B11 |  |  |  | 123 relative, control = 100 |
| B12 |  |  |  | 105 relative, control = 100 |
| B13 | 122 relative binding activity, GpH7-A5/GpH7-B3/GpL16-k0 = 100 | 160 relative binding activity, GpH7-A5/GpH7-B3/GpL16-k0 = 100 | 0.76 ratio of He/Con_3a to He/Con_2b |  |
| B14 |  |  |  | 173 relative, control = 100 |
| B15 |  |  |  | 110 relative, control = 100 |
